# Experimental data: the supplement of paper PMC6755084
# B1: minF1; a variant is named by its letters at N, in order (parent)
# chain: GAGACCGCAACTGAAAAGTTGTTNNNNAANNNNNGGNTNAATTTCTGCACGTAGAAGCAAAAGGC
# Variants of: B1
# Experiment: fraction ligated after 30 min (ligated reads / total reads); higher = more ligase activity
# Settings: with F1*subA RNA substrate (template-directed ligation), 42 °C
# Outline: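 Templates from an oligo pool encoding minimized ligase ribozyme variants were amplified by PCR, transcribed with T7, and purified on gels. Gel electrophoresis separated ligated from unligated RNAs, which were then reverse transcribed using barcoded primers and sequenced on a MiSeq, keeping core bases with quality ≥30. For each variant, fraction ligated equals ligated reads divided by total reads.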
row,Variant,fraction ligated
1,TCAATGGATTG,0.0203
2,ACAATGGATTG,0.0118
3,TCAATGGATTG T23A,0.0162
4,TCAATGGTGTG,0.00313
5,ACAATGGTGTG,0.00249
6,TCAATGGTGTG T23A,0.00318
7,TCAGAGATGTG,0.00161
8,ACAGAGATGTG,0.0018
9,TCAGAGATGTG T23A,0.00422
10,TCAGAGGAGTG,0.00402
11,ACAGAGGAGTG,0.00131
12,TCAGAGGAGTG T23A,0
13,TCAGAGGATGT,0.00375
14,ACAGAGGATGT,0.00215
15,TCAGAGGATGT A40G,0.00564
16,ACAGAGGATGT A40G,0.00295
17,TCAGAGGATGT T23A,0.00218
18,TCAGAGGATGT T23A A40G,0.00415
19,TCAGAGGATTG,0.00228
20,ACAGAGGATTG,0.0039
21,TCAGAGGATTG T23A,0.00302
22,TCAGAGGTGTG,0.00137
23,ACAGAGGTGTG,0.00336
24,TCAGAGGTGTG T23A,0.0038
25,TCAGATATGTG,0.000901
26,ACAGATATGTG,0.000749

row,Variant,fraction ligated
1,TCAGATATGTG T23A,0.000828
2,TCAGATGAGTG,0.00318
3,ACAGATGAGTG,0.00298
4,TCAGATGAGTG T23A,0.00316
5,TCAGATGATGT,0.00279
6,ACAGATGATGT,0.00327
7,TCAGATGATGT A40G,0.011
8,ACAGATGATGT A40G,0.00654
9,TCAGATGATGT T23A,0.00365
10,TCAGATGATGT T23A A40G,0.0104
11,TCAGATGATTG,0.00341
12,ACAGATGATTG,0.00209
13,TCAGATGATTG T23A,0.00216
14,TCAGATGGAGT,0.00402
15,ACAGATGGAGT,0.00252
16,TCAGATGGAGT A40G,0.00532
17,ACAGATGGAGT A40G,0.00662
18,TCAGATGGAGT G35T,0.0137
19,ACAGATGGAGT G35T,0.014
20,TCAGATGGAGT G35T A40G,0.0226
21,ACAGATGGAGT G35T A40G,0.0182
22,TCAGATGGAGT G35T T38G A40T,0.00171
23,ACAGATGGAGT G35T T38G A40T,0.00236
24,TCAGATGGAGT G35T T38G A40T A41G,0.000378
25,ACAGATGGAGT G35T T38G A40T A41G,0.000565
26,TCAGATGGAGT T23A,0.00368

row,Variant,fraction ligated
1,TCAGATGGAGT T23A A40G,0.0153
2,TCAGATGGAGT T23A G35T,0.0188
3,TCAGATGGAGT T23A G35T A40G,0.0397
4,TCAGATGGAGT T23A G35T T38G A40T,0.00248
5,TCAGATGGAGT T23A G35T T38G A40T A41G,0.000947
6,TCAGATGGATG,0.00236
7,ACAGATGGATG,0.000541
8,TCAGATGGATG T23A,0.00344
9,TCAGATGGGTG,0.00281
10,ACAGATGGGTG,0.00695
11,TCAGATGGGTG T23A,0.00356
12,TCAGATGGTGT,0.00178
13,ACAGATGGTGT,0.002
14,TCAGATGGTGT A40G,0.00521
15,ACAGATGGTGT A40G,0.00805
16,TCAGATGGTGT T23A,0.00338
17,TCAGATGGTGT T23A A40G,0.00684
18,TCAGATGGTTG,0.00217
19,ACAGATGGTTG,0.00164
20,TCAGATGGTTG T23A,0.00182
21,TCAGATGTGTG,0.00186
22,ACAGATGTGTG,0.00297
23,TCAGATGTGTG T23A,0.00194
24,TCAGGGATGTG,0.00365
25,ACAGGGATGTG,0.00108
26,TCAGGGATGTG A29T,0.00613

row,Variant,fraction ligated
1,ACAGGGATGTG A29T,0.00506
2,TCAGGGATGTG T23A,0.00448
3,TCAGGGATGTG T23A A29T,0.0174
4,TCAGTGATGTG,0.00229
5,ACAGTGATGTG,0.00182
6,TCAGTGATGTG T23A,0.00342
7,TCAGTGGAGTG,0.00343
8,ACAGTGGAGTG,0.00292
9,TCAGTGGAGTG T23A,0.00419
10,TCAGTGGATGT,0.00577
11,ACAGTGGATGT,0.00954
12,TCAGTGGATGT A40G,0.0137
13,ACAGTGGATGT A40G,0.017
14,TCAGTGGATGT T23A,0.00804
15,TCAGTGGATGT T23A A40G,0.0264
16,TCAGTGGATTG,0.0102
17,ACAGTGGATTG,0.013
18,TCAGTGGATTG T23A,0.0201
19,TCAGTGGTGTG,0.00248
20,ACAGTGGTGTG,0.00205
21,TCAGTGGTGTG T23A,0.00335
22,TCGAGGATGTG,0.00582
23,ACGAGGATGTG,0.00409
24,TCGAGGATGTG A29T,0.0105
25,ACGAGGATGTG A29T,0.0139
26,TCGAGGATGTG T23A,0

row,Variant,fraction ligated
1,TCGAGGATGTG T23A A29T,0.013
2,TCGATGATGTG,0.00384
3,ACGATGATGTG,0.00228
4,TCGATGATGTG T23A,0.00559
5,TCGATGGAGTG,0.00518
6,ACGATGGAGTG,0.00302
7,TCGATGGAGTG T23A,0.00843
8,TCGATGGATGT,0.0171
9,ACGATGGATGT,0.0146
10,TCGATGGATGT A40G,0.0635
11,ACGATGGATGT A40G,0.0424
12,TCGATGGATGT T23A,0.0123
13,TCGATGGATGT T23A A40G,0.0572
14,TCGATGGATTG,0.127
15,ACGATGGATTG,0.0663
16,TCGATGGATTG T23A,0.116
17,TCGATGGTGTG,0.00336
18,ACGATGGTGTG,0.00555
19,TCGATGGTGTG T23A,0.00501
20,AGAAGGATGTG A29T,0.00349
21,CGAAGGATGTG A29T,0.0086
22,TGAAGGATGTG A29T,0.00393
23,AGAAGGATGTG T23A A29T,0.00429
24,CGAAGGATGTG T23A A29T,0.00782
25,TGAAGGATGTG T23A A29T,0.00369
26,AGAAGGATGTG T23C A29T,0.0071

row,Variant,fraction ligated
1,ATAAGGATGTG,0.00241
2,ATAAGGATGTG A29T,0.0199
3,ATAATGATGTG,0.00474
4,ATAATGGAGTG,0.00187
5,ATAATGGATGT,0.00257
6,ATAATGGATGT A40G,0.0127
7,ATAATGGATTG,0.00677
8,ATAATGGTGTG,0.00284
9,ATAGAGATGTG,0.00202
10,ATAGAGGAGTG,0.00165
11,ATAGAGGATGT,0.00209
12,ATAGAGGATGT A40G,0.00594
13,ATAGAGGATTG,0.00226
14,ATAGAGGTGTG,0.00246
15,ATAGATATGTG,0.00482
16,ATAGATGAGTG,0.00181
17,ATAGATGATGT,0.000906
18,ATAGATGATGT A40G,0.00341
19,ATAGATGATTG,0.00301
20,ATAGATGGAGT,0.00474
21,ATAGATGGAGT A40G,0.00598
22,ATAGATGGAGT G35T,0.00557
23,ATAGATGGAGT G35T A40G,0.0113
24,ATAGATGGAGT G35T T38G A40T,0.000429
25,ATAGATGGAGT G35T T38G A40T A41G,0.00159
